In patent US8257698B2, “Protein engineering of monoacylglycerol lipase (MGLL)” (Janssen Pharmaceutica N.V., priority 2008, dated 2012):
Changes are numbered by the printed parent chain. Numbers in names are those of the source.

B1: mut-MGLL 9-297, L169S, L176S: engineered form of human MGLL, cap mutations plus truncation (protein, UniProt Q99685 9-297, looked up, variant L169S L176S)
chain: RTPQSIPYQDLPHLVNADGQYLFCRYWKPTGTPKALIFVSHGAGEHSGRYEELARMLMGLDLLVFAHDHVGHGQSEGERMVVSDFHVFVRDVLQHVDSMQKDYPGLPVFLLGHSMGGAIAILTAAERPGHFAGMVLISPLVLANPESATTFKVLAAKVLNSVLPNLSSGPIDSSVLSRNKTEVDIYNSDPLICRAGLKVCFGIQLLNAVSRVERALPKLTVPFLLLQGSADRLCDSKGAYLLMELAKSQDKTLKIYEGAYHVLHKELPEVTNSVFHEINMWVSQRTATA
B2: mut-MGLL 9-303, L169S, L176S: engineered form of human MGLL, cap mutations plus truncation (protein, UniProt Q99685 9-303, looked up, variant L169S L176S)
chain: RTPQSIPYQDLPHLVNADGQYLFCRYWKPTGTPKALIFVSHGAGEHSGRYEELARMLMGLDLLVFAHDHVGHGQSEGERMVVSDFHVFVRDVLQHVDSMQKDYPGLPVFLLGHSMGGAIAILTAAERPGHFAGMVLISPLVLANPESATTFKVLAAKVLNSVLPNLSSGPIDSSVLSRNKTEVDIYNSDPLICRAGLKVCFGIQLLNAVSRVERALPKLTVPFLLLQGSADRLCDSKGAYLLMELAKSQDKTLKIYEGAYHVLHKELPEVTNSVFHEINMWVSQRTATAGTASPP
B3: mut-MGLL 1-303, L171Q: engineered form of human MGLL, cap mutation (protein)
chain: MVDHHHHHHENLYFQGMPEESSPRRTPQSIPYQDLPHLVNADGQYLFCRYWKPTGTPKALIFVSHGAGEHSGRYEELARMLMGLDLLVFAHDHVGHGQSEGERMVVSDFHVFVRDVLQHVDSMQKDYPGLPVFLLGHSMGGAIAILTAAERPGHFAGMVLISPLVLANPESATTFKVLAAKVLNLVQPNLSLGPIDSSVLSRNKTEVDIYNSDPLICRAGLKVCFGIQLLNAVSRVERALPKLTVPFLLLQGSADRLCDSKGAYLLMELAKSQDKTLKIYEGAYHVLHKELPEVTNSVFHEINMWVSQRTATAGTASPP
B4: mut-MGLL 1-303, L167Q, L171Q: engineered form of human MGLL, cap mutations (protein)
chain: B3 chain with L183Q
B5: mut-MGLL 1-303, L171Q, L174Q: engineered form of human MGLL, cap mutations (protein)
chain: B3 chain with L190Q
B6: mut-MGLL 1-303, L169S, L176S, K36A: engineered human MGLL 1-303 L169S, L176S, K36A; SEQ ID NO: 6, SEQ ID NO: 7 after TEV cleavage (protein)
chain: B3 chain with K52A, L185S, Q187L, L192S
modifications: His tag and TEV site; SEQ ID 7 after TEV cleavage; Human
B7: mut-MGLL. 1-303, L167Q, L174Q: engineered form of human MGLL, cap mutations (protein)
chain: B3 chain with L183Q, Q187L, L190Q
B8: mut-MGLL. 1-303, L169S, L176S, K160A: engineered form of human MGLL, cap plus surface mutations (protein)
chain: B3 chain with K176A, L185S, Q187L, L192S

The molecules below were run on MGLL (assay: Kinetic analysis: hydrolysis of 4-methyl coumarin butyrate (4MC-B) by MGLL constructs). Details: substrate 4MC-B; 4-5 nM MGLL, 20 mM Pipes pH 7, 150 mM NaCl, 37° C.; average of 2 or 4 separate assays.
Assay type: biochemical, human
Excerpt: A small fluorescent substrate, 4-methyl coumarin butyrate (4MC-B) was used to compare the activity of the engineered mutants to the activity of wt-MGLL (hMGLL 1-303) (SEQ ID NO: 3). The catalytic efficiency (kcat/KM) for the hydrolysis of the 4MC-B was similar for wt-MGLL (hMGLL 1-303) (SEQ ID NO: 3) and all MGLL mutants tested (Table 2). A larger more aliphatic fluorescent substrate, Coumarin Arachidonate (C-A), structurally more closely related to the MGLL natural substrate, 2-AG, was used to compare the activity of wt-MGLL (hMGLL 1-303) (SEQ ID NO: 3) to TEV cleaved mut-MGLL (hMGLL 1-303 L169S, L176S) (SEQ ID NO: 5).
The Michaelis-Menten parameters for the hydrolysis of 4-methylcoumarin butyrate (4MC-B) and coumarin arachidonate (C-A) substrate were determined using 4-5 nM of MGLL in 20 mM Pipes pH 7 and 150 mM NaCl at 37° C. The change in fluorescence due to substrate hydrolysis was monitored using excitation/emission wavelengths of 335/440 in a Safire II instrument from Tecan. The hyperbolic rates versus substrate concentration curves for the hydrolysis of 4MC-B were fit to the Michaelis-Menten equation using Excel.

Molecule	Kcat [s⁻¹]	Km [µM]
B1	0.433	126
B2	0.45	88
B3	0.85	105
B4	0.983	84
B5	0.783	89
B6	0.85	124
B7	1.17	84
B8	0.5	90
